The target in the assay is human recombinant adrenomedullin receptor (CRLR+RAMP3) (Homo sapiens).

On to “human Adrenomedullin (hADM 1-52) (peptide)”, for which the 50% effective concentration (EC50 (read off the curve)) was found to be 1 nM.

For the origin of these results see US20140314775A1.
